Source: paper PMC4396693, “Structural Basis of Latrophilin-FLRT Interaction” (Structure(London, England:1993), 2015)
Residue numbers refer to the chain shown, from its start. In names and notes the source's numbering stands.

T1: murine LPHN3 olfactomedin domain (LPHN3^Olf, residues 202-463) (murine, UniProt Q80TS3 202-463)
T1 chain: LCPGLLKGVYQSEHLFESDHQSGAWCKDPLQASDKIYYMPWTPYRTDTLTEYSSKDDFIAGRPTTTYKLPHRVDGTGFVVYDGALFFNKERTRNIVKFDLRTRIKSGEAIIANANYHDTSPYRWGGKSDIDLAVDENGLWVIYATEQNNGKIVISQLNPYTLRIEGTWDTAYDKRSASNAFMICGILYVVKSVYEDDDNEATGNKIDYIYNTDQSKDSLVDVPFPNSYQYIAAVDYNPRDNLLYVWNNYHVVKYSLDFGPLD

T2: murine LPHN3 olfactomedin domain (LPHN3^Olf, residues 202-463), Q80TS3
T2 chain: T1 chain

T3: murine FLRT2 full ectodomain, wild type (residues 35-540) (murine, UniProt Q8BLU0 35-540)
T3 construct: Fibronectin leucine-rich repeat transmembrane protein 2 (FLRT2), mouse, full-length ectodomain, residues 35-540; also called FLRT2 ectodomain; source: HEK293S GlnTI- cells, transiently expressed
T3 sequence (looked up): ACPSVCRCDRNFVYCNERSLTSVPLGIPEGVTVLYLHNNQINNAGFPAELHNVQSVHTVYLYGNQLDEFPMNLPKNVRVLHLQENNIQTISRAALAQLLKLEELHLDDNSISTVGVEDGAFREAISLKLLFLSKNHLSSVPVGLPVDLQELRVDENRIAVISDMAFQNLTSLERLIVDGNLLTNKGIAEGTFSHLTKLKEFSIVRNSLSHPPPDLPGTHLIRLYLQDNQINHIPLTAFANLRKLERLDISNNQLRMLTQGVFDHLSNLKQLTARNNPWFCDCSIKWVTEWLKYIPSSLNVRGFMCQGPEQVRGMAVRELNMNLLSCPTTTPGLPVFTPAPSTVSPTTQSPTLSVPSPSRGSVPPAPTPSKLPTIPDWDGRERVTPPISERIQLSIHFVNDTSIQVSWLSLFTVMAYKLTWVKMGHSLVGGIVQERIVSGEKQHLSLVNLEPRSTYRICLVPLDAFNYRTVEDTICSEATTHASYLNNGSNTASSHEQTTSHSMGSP

B1: murine FLRT2 full ectodomain, wild type (residues 35-540), Q8BLU0 UF (protein)
chain: T3 sequence (looked up) with H136N
B2: murine FLRT2 full ectodomain, wild type (residues 35-540) (domain or fragment)
chain: T3 sequence (looked up)
B3: murine LPHN3 olfactomedin domain (LPHN3^Olf, residues 202-463) (domain or fragment, UniProt Q80TS3 202-463, looked up)
chain: T1 chain
notes: Latrophilin 3 (LPHN3), mouse, olfactomedin-like domain, residues 202-463; also called LPHN3 Olf domain; olfactomedin domain of murine LPHN3; source: kifunensine-treated HEK293T cells, transiently expressed, purified
B4: murine LPHN3^Lec-Olf, wild type, biotinylated at a C-terminal Avi-Tag (domain or fragment, UniProt Q80TS3 92-463, looked up)
chain: PIPMAVVRRELSCESYPIELRCPGTDVIMIESANYGRTDDKICDSDPAQMENIRCYLPDAYKIMSQRCNNRTQCAVVAGPDVFPDPCPGTYKYLEVQYECVPYKVEQKVFLCPGLLKGVYQSEHLFESDHQSGAWCKDPLQASDKIYYMPWTPYRTDTLTEYSSKDDFIAGRPTTTYKLPHRVDGTGFVVYDGALFFNKERTRNIVKFDLRTRIKSGEAIIANANYHDTSPYRWGGKSDIDLAVDENGLWVIYATEQNNGKIVISQLNPYTLRIEGTWDTAYDKRSASNAFMICGILYVVKSVYEDDDNEATGNKIDYIYNTDQSKDSLVDVPFPNSYQYIAAVDYNPRDNLLYVWNNYHVVKYSLDFGPLD
modifications: biotin on the C-terminal Avi-Tag (enzymatic)
notes: Latrophilin 3 (LPHN3), mouse, lectin and olfactomedin-like domains; residues 92-463 are stated for the crystallization construct; Limits 92-463 are printed for the crystallization construct; the limits of the Avi-tagged construct may be in the Supplemental Experimental Procedures; also called LPHN^Lec-Olf; not shown: Avi-Tag, C-terminal, kept
B5: murine LPHN3^Lec-Olf mutant LPHN3^LF(4) (P244N+R246T), biotinylated at a C-terminal Avi-Tag (domain or fragment, UniProt Q80TS3 92-463, looked up)
chain: B4 chain with P153N, R155T
modifications: biotin on the C-terminal Avi-Tag (enzymatic)
notes: Latrophilin 3 (LPHN3), mouse, lectin and olfactomedin-like domains; residues 92-463 are stated for the crystallization construct; artificial N-linked glycosylation site; not shown: Avi-Tag, C-terminal, kept
B6: murine LPHN3^Lec-Olf mutant LPHN3^LF(3) (T267N+K269T), biotinylated at a C-terminal Avi-Tag (domain or fragment, UniProt Q80TS3 92-463, looked up)
chain: B4 chain with T176N, K178T
modifications: biotin on the C-terminal Avi-Tag (enzymatic)
notes: as for B5

Experiments:
[1] = target: T1, murine LPHN3 olfactomedin domain …; test: SPR
[2] = target: murine FLRT2 full ectodomain, wild type (residues 35-540) (murine) (UniProt Q8BLU0); test: SPR; one or the other of the two set-ups (FLRT2 ectodomain on CM5 with LPHN3 Olf as analyte, or LPHN3^Lec-Olf on streptavidin with FLRT2 ectodomain as analyte); the text does not say which value belongs to which; 25°C, PBS pH 7.5
[3] = target: T2, murine LPHN3 olfactomedin domain …; test: SPR; details: chain shown with the change
[4] = target: T3, murine FLRT2 full ectodomain, wild type …; test: SPR; FLRT2 ectodomains (wild type, UF, FF) amine-coupled to a CM5 Biacore chip, LPHN3 Olf domain injected as analyte; equilibrium, 25°C, PBS pH 7.5, 0.005% polysorbate 20; 1:1 model; details: both partners purified
[5] = target: B2; test: SPR
[6] = target: T3, murine FLRT2 full ectodomain, wild type …; test: SPR; biotinylated wild-type or mutant LPHN3^Lec-Olf on streptavidin-coated Biacore chips, FLRT2 ectodomain injected as analyte; equilibrium, 25°C, PBS pH 7.5, 0.005% polysorbate 20; 1:1 model; details: both partners purified
[7] = maximum response at the highest LPHN3 Olf concentration plotted (about 2 µM), parent: est. 390, read off a plot

murine FLRT2 full ectodomain, wild type (residues 35-540) (from UniProt Q8BLU0) FF
response [1, 7]: -0 RU

wild-type LPHN3 proteins
Kd [2]: 18 to 40 nM

B1
Kd ([3]; FLRT2 ectodomains immobilized on a CM5 Biacore chip, LPHN3 olfactomedin domain injected as analyte, 1:1 binding model, parent: 40 nM): 15 nM | response [3, 7]: 390 RU

B2
Kd [1]: 40 nM

B3
binding result [4]: binds

B4
Kd [5]: 18 nM | binding result [6]: binds

B5
binding result [6]: binds

B6
binding result [6]: binds
